The values below come from US20110262477A1 (priority 2008, published 2011).

The series relates to Nc1ncnc2c1ncn2[C@@H]1O[C@H](COP(=O)(O)O)[C@@H](O)[C@H]1O. Nature of the series: purified protein, by the assay type. The note with it: pH 7.5; 37.0 °C.

In general, Km refers to the substrate concentration at which the rate is half of its maximum. Take “Bacillus anthracis BasA (AdsA homolog, NCBI locus tag BAS4031), tagged, affinity purified from E. coli, SEQ ID NO:41 (Bacillus anthracis)”: the Michaelis constant (Km) is recorded as 2.01 nM.
